Data: patent US20040077031A1, “Novel methionine aminopeptidase-2 and uses thereof” (priority 2002, published 2004)

Tests used:
Experiment in all cases: Kinetic constants of MetAP2 with Mn2+ on peptide substrates (chromogenic assay)
Format in all cases: biochemical, human
Details in all cases: other: MetAP2 with 100 μM Mn2+; pH 7.4
[1] = substrate: CSCC[C@H](N)C(=O)NCC(=O)N[C@@H](C)C(=O)N[C@@H](CCC(N)=O)C(=O)N[C@@H](Cc1ccccc1)C(=O)N[C@@H](CO)C(=O)N[C@@H](CCCCN)C(=O)N[C@H](C(=O)O)[C@@H](C)O
From the text: (§1) A coupled-enzyme chromogenic assay was used to measure methionine aminopeptidase activity by monitoring the production of free methionine cleaved from specific peptide substrates containing methionine. […] Free methionine was oxidized with L-amino acid oxidase (AAO, Sigma Catalog No. A-9378) and horseradish peroxidase (HRP, Sigma Catalog No. P-8451). Oxidation by AAO of free methionine generates hydrogen peroxide (H2O2) which then reacts with HRP oxidizing 0-dianisidine (Sigma Catalog No. D-1954) or 10-acetyl-3,7-dihydrophenoxazine (Amplex Red, Molecular Probes). Assays were performed in 96-well microtiter plates. Enzyme preparations were diluted in assay buffer (50 mM HEPES, pH 7.4, 100 mM NaCl), and 10 μl of the enzymes were introduced into each well. A mixture (90 μl) of 0.1 mg/ml L-amino acid oxidase, 0.1 mg/ml of horseradish peroxidase, 0.1 mg/ml ortho-dianisidine, and 0.5 mM peptide substrate was added to each cell. The reactions were carried out at room temperature, and the absorbance at 450 nanometer (A450) was measured every 20 seconds over a period of twenty minutes using an automatic plate reader (Molecular Devices, Calif., USA). The rate in mOD/min, calculated for each well, was used to represent MetAP1 or MetAP2 activity. Under this assay condition, the methionine cleaved from peptide substrate by MetAP1 or MetAP2 was instantaneously oxidized to generate a final A450 readout. It was determined that 1 μM methionine generated a 2.25 mOD increase in the A450 readout.
(§2) MetAP2 using Mn^2+ as cofactor was studied to obtain kinetic constants on several peptide substrates. […] Enzyme kinetics was studied using the chromogenic assay to determine enzymatic activity as described in Example 3. […] These peptides were tested at a final concentration of 20, 40, 80, 160, 320, and 640 μM in the assay buffer (50 mM HEPES, pH 7.4, 100 mM NaCl). […] The initial rate of methionine cleavage was determined by measuring the A450 change as described above. Kinetic constants were calculated using Linewaver-Burk plots.

[2] = substrate: CSCC[C@H](N)C(=O)NCC(=O)N[C@@H](CC(N)=O)C(=O)N[C@@H](C)C(=O)N[C@@H](C)C(=O)N[C@@H](C)C(=O)N[C@@H](C)C(=O)N[C@@H](CCCCN)C(=O)O
From the text: as §1, §2

[3] = substrate: CSCC[C@H](N)C(=O)NCC(=O)N[C@@H](CC(N)=O)C(=O)N[C@@H](CC(C)C)C(=O)N[C@@H](CCCCN)C(=O)N[C@@H](CO)C(=O)N[C@H](C(=O)N[C@@H](C)C(=O)O)C(C)C
From the text: as §1, §2

[4] = substrate: CSCC[C@H](N)C(=O)NCC(=O)N[C@@H](CCCCN)C(=O)N[C@H](C(=O)N[C@@H](CCCCN)C(=O)N[C@H](C(=O)NCC(=O)N[C@H](C(=O)N[C@@H](CC(N)=O)C(=O)NCC(=O)N[C@@H](Cc1ccccc1)C(=O)O)C(C)C)C(C)C)C(C)C
From the text: as §1, §2

[5] = substrate: CSCC[C@H](N)C(=O)NCC(=O)N[C@@H](CCCCN)C(=O)N[C@H](C(=O)N[C@@H](CCCCN)C(=O)N[C@H](C(=O)NCC(=O)N[C@H](C(=O)N[C@@H](CC(N)=O)C(=O)NCC(=O)O)C(C)C)C(C)C)C(C)C
From the text: as §1, §2

[6] = substrate: CSCC[C@H](N)C(=O)NCC(=O)N[C@@H](CCCCN)C(=O)N[C@H](C(=O)N[C@@H](CCCCN)C(=O)N[C@H](C(=O)NCC(=O)N[C@H](C(=O)N[C@@H](CC(N)=O)C(=O)O)C(C)C)C(C)C)C(C)C
From the text: as §1, §2

[7] = substrate: CSCC[C@H](N)C(=O)NCC(=O)N[C@@H](CCCCN)C(=O)N[C@H](C(=O)N[C@@H](CCCCN)C(=O)N[C@H](C(=O)O)C(C)C)C(C)C
From the text: as §1, §2

[8] = substrate: CSCC[C@H](N)C(=O)NCC(=O)N[C@@H](CCCCN)C(=O)N[C@H](C(=O)N[C@@H](CCCCN)C(=O)O)C(C)C
From the text: as §1, §2

[9] = substrate: CSCC[C@H](N)C(=O)NCC(=O)N[C@@H](CCCCN)C(=O)N[C@H](C(=O)O)C(C)C
From the text: as §1, §2

[10] = substrate: CSCC[C@H](N)C(=O)NCC(=O)N[C@@H](CCCCN)C(=O)O
From the text: as §1, §2

[11] = substrate: CSCC[C@H](N)C(=O)NCC(=O)N[C@@H](CO)C(=O)N[C@@H](CO)C(=O)N[C@@H](CCCCN)C(=O)N[C@@H](CO)C(=O)N[C@@H](CCCCN)C(=O)N1CCC[C@H]1C(=O)O
From the text: as §1, §2

[12] = substrate: CSCC[C@H](N)C(=O)N[C@@H](C)C(=O)N[C@@H](CO)C(=O)O
From the text: as §1, §2

B1: MetAP2 (Homo sapiens) (protein)
chain: MAGVEEVAASGSHLNGDLDPDDREEGAASTAEEAAKKKRRKKKKSKGPSAAGEQEPDKESGASVDEVARQLERSALEDKERDEDDEDGDGDGDGATGKKKKKKKKKRGPKVQTDPPSVPICDLYPNGVFPKGQECEYPPTQDGRTAAWRTTSEEKKALDQASEEIWNDFREAAEAHRQVRKYVMSWIKPGMTMIEICEKLEDCSRKLIKENGLNAGLAFPTGCSLNNCAAHYTPNAGDTTVLQYDDICKIDFGTHISGRIIDCAFTVTFNPKYDTLLKAVKDATNTGIKCAGIDVRLCDVGEAIQEVMESYEVEIDGKTYQVKPIRNLNGHSIGQYRIHAGKTVPIVKGGEATRMEEGEVYAIETFGSTGKGVVHDDMECSHYMKNFDVGHVPIRLPRTKHLLNVINENFGTLAFCRRWLDRLGESKYLMALKNLCDLGIVDPYPPLCDIKGSYTAQFEHTILLRPTCKEVVSRGDDY
notes: gp67 secretion signal of vector pAcGP67B (N); made in house; host or cells: baculovirus-infected Sf9 insect cells, secreted into medium
Km [1]: 224.4 µM
kcat [1]: 4.87 s⁻¹
kcat/Km [1]: 21700 M⁻¹ s⁻¹
Km [2]: 259.9 µM
kcat [2]: 3.78 s⁻¹
kcat/Km [2]: 15000 M⁻¹ s⁻¹
Km [3]: 208.3 µM
kcat [3]: 4.87 s⁻¹
kcat/Km [3]: 23300 M⁻¹ s⁻¹
Km [4]: 131.3 µM
kcat [4]: 9.43 s⁻¹
kcat/Km [4]: 71700 M⁻¹ s⁻¹
Km [5]: 163.6 µM
kcat [5]: 10.2 s⁻¹
kcat/Km [5]: 61700 M⁻¹ s⁻¹
Km [6]: 205.0 µM
kcat [6]: 10.2 s⁻¹
kcat/Km [6]: 50000 M⁻¹ s⁻¹
Km [7]: 149.3 µM
kcat [7]: 8.53 s⁻¹
kcat/Km [7]: 56700 M⁻¹ s⁻¹
Km [8]: 188.1 µM
kcat [8]: 10.4 s⁻¹
kcat/Km [8]: 55000 M⁻¹ s⁻¹
Km [9]: 623.7 µM
kcat [9]: 6.7 s⁻¹
kcat/Km [9]: 10000 M⁻¹ s⁻¹
Km [10]: 757.6 µM
kcat [10]: 3.32 s⁻¹
kcat/Km [10]: 5000 M⁻¹ s⁻¹
Km [11]: 233.1 µM
kcat [11]: 3.94 s⁻¹
kcat/Km [11]: 16700 M⁻¹ s⁻¹
Km [12]: 211.5 µM
kcat [12]: 2.54 s⁻¹
kcat/Km [12]: 12000 M⁻¹ s⁻¹
